Reference: patent US20240189442A1 (ALLYGEN GROUP, published 2024)
No end group written: not given here.

Biological target: T1, Ab2B
T1 construct: The variable domains are the same in both; also called antibody Ab2B
Assay: Biacore; Ab2B captured on anti-human Fab chip, peptide as analyte
Procedure: Anti-human Fab was ligated to Biacore chips at pH 4.5. […] TBPs were flowed through the chip as analytes at 30 μL/min. 10 mM glycine at pH 1.5 was used for regeneration of the chip. Conditions were optimized as needed.

T1 sequence (heavy, as listed by the source, chain 1 of 2): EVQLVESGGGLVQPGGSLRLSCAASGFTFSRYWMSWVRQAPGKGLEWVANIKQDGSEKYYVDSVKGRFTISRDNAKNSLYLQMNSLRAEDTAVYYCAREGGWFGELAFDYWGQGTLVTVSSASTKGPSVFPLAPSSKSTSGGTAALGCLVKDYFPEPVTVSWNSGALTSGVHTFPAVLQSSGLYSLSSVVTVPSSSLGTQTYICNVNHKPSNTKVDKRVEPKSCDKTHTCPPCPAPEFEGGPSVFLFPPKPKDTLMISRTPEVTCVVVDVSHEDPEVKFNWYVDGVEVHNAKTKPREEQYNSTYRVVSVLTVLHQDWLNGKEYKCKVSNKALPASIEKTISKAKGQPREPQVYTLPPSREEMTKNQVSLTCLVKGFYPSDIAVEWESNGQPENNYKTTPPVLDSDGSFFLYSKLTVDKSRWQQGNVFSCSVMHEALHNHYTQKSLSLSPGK
T1 sequence (light, as listed by the source, chain 2 of 2): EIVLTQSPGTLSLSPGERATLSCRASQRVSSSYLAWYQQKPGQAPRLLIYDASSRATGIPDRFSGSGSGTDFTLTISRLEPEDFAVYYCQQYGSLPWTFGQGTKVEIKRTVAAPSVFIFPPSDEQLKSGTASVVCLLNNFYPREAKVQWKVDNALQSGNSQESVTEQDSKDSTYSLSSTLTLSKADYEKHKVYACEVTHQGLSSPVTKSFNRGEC

{NH2‑(PEG)12}-RSQSRSRYYRQRQRSRRRRRRS (also called TBPA) [SEQ ID NO: 151]: no binding (tested: 50.0~0.8 nM analyte range).
